Test results as given in patent publication US20170015742A1 (published 2017).

Key:
Assay in all cases: cell-based or functional assay
[1] = target: recombinant human PDGF-BB (human, UniProt P01127 82-190)
[2] = target: T1, recombinant cynomolgus PDGF-BB (cynomolgus monkey, UniProt P01127 82-190 (human entry), limits assumed)
T1 chain: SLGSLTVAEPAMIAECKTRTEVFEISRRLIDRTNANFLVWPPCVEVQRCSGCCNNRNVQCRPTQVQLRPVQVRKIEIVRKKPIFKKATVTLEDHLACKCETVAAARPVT

[3] = target: recombinant murine PDGF-BB (mouse, UniProt P31240 82-190)
recombinant rat PDGF-BB = recombinant rat PDGF-BB (rat, UniProt Q05028 74-182)
recombinant rat PDGF-BB, sequence (Q05028 74-182 limits assumed): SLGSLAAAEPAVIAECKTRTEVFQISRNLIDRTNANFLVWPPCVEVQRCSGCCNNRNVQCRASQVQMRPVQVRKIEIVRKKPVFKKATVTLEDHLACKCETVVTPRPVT

recombinant murine PDGF-BB, sequence (P31240 82-190 limits assumed): as the sequence (Q05028 74-182 limits assumed) above, with V83I, V102I counted along it

| Co-incubation Potency IC50 (nM) hPDGF-BB (NIH-3T3 proliferation, DVD-Ig pre-incubated with excess hVEGF165) [1] | Potency IC50 (nM) cynoPDGF-BB (NIH-3T3 proliferation) [2] | Potency IC50 (nM) mPDGF-BB (NIH-3T3 proliferation) [3] | Potency IC50 (nM) ratPDGF-BB (NIH-3T3 proliferation) (recombinant rat PDGF-BB) | Binder |
| --- | --- | --- | --- | --- |
| 0.032 nM | 0.139 nM | 0.134 nM | 1.51 nM | hVEGF 4G8.3-GS-hPDGF 9E8.4 [hu IgG1/k] mut(234, 235) H435A (PR-1569574) (bispecific antibody) heavy: EVQLVQSGSELKKPGASVKVSCKASGYTFTNYGMYWVRQAPGQGLEWMGWINTETGKPTYADDFKGRFVFSLDTSVSTAYLQISSLKAEDTAVYYCARTNYYYRSYIFYFDYWGQGTMVTVSSGGGGSGGGGSEVTLRESGPALVKPTQTLTLTCTFSGFSLSTYGMGVGWIRQPPGKALEWLANIWWDDDKYYNPSLKNRLTISKDTSKNQVVLTMTNMDPVDTATYYCARIESIGTTYSFDYWGQGTMVTVSSASTKGPSVFPLAPSSKSTSGGTAALGCLVKDYFPEPVTVSWNSGALTSGVHTFPAVLQSSGLYSLSSVVTVPSSSLGTQTYICNVNHKPSNTKVDKKVEPKSCDKTHTCPPCPAPEAAGGPSVFLFPPKPKDTLMISRTPEVTCVVVDVSHEDPEVKFNWYVDGVEVHNAKTKPREEQYNSTYRVVSVLTVLHQDWLNGKEYKCKVSNKALPAPIEKTISKAKGQPREPQVYTLPPSREEMTKNQVSLTCLVKGFYPSDIAVEWESNGQPENNYKTTPPVLDSDGSFFLYSKLTVDKSRWQQGNVFSCSVMHEALHNAYTQKSLSLSPGK light: DTVLTQSPATLSLSPGERATLSCRASESVSTHMHWYQQKPGQAPRLLIYGASNLESGVPARFSGSGSGTDFTLTISSLEPEDFAVYFCQQSWNDPFTFGQGTKLEIKRGGSGGGGSGEFVLTQSPGTLSLSPGERATLSCERSSGDIGDSYVSWYQQKPGQAPRLVIYADDQRPSGIPDRFSGSGSGTDFTLTISRLEPEDFAVYYCQSYDINIDIVFGGGTKVEIKGTVAAPSVFIFPPSDEQLKSGTASVVCLLNNFYPREAKVQWKVDNALQSGNSQESVTEQDSKDSTYSLSSTLTLSKADYEKHKVYACEVTHQGLSSPVTKSFNRGEC |
| 0.04 nM | 0.035 nM | 0.032 nM | 0.038 nM | 9E10.1_GS_CL-33675 anti-VEGF-A/anti-PDGF-BB DVD-Ig (PR-1610561) (bispecific antibody, human IgG1, kappa, L234A L235A) heavy: EIQLVQSGSELKKPGASVKVSCKASGYTFTNYGMYWVKQAPGQGLEYMGWIDTETGRPTYADDFKGRFVFSLDTSVSTAYLQISSLKAEDTAVYFCARWSGDTTGIRGPWFAYWGQGTLVTVSSGGGGSGGGGSEVTLRESGPALVKPTQTLTLTCTFSGFSLSTYGMGVGWIRQPPGKALEWLANIWWDDDKYYNPSLKNRLTISKDTSKNQVVLTMTNMDPVDTATYYCARIESSGPKYSFDYWGQGTMVTVSSASTKGPSVFPLAPSSKSTSGGTAALGCLVKDYFPEPVTVSWNSGALTSGVHTFPAVLQSSGLYSLSSVVTVPSSSLGTQTYICNVNHKPSNTKVDKKVEPKSCDKTHTCPPCPAPEAAGGPSVFLFPPKPKDTLMISRTPEVTCVVVDVSHEDPEVKFNWYVDGVEVHNAKTKPREEQYNSTYRVVSVLTVLHQDWLNGKEYKCKVSNKALPAPIEKTISKAKGQPREPQVYTLPPSREEMTKNQVSLTCLVKGFYPSDIAVEWESNGQPENNYKTTPPVLDSDGSFFLYSKLTVDKSRWQQGNVFSCSVMHEALHNAYTQKSLSLSPGK light: DIRMTQSPSSLSASVGDRVTIECLASEDIYSDLAWYQQKPGKSPKLLIYNANGLQNGVPSRFSGSGSGTDYSLTISSLQPEDVATYFCQQYNYFPGTFGQGTKLEIKGGSGGGGSGGEIVLTQSPGTLSLSPGERATLSCRASSGSIWYSFVSWYQQKPGQAPRLLIYADDQRASGIPDRFSGSGSGTDFTLTISRLEPEDFAVYYCQSYGINIDVVFGGGTKVEIKRTVAAPSVFIFPPSDEQLKSGTASVVCLLNNFYPREAKVQWKVDNALQSGNSQESVTEQDSKDSTYSLSSTLTLSKADYEKHKVYACEVTHQGLSSPVTKSFNRGEC |

More lines, now with the values behind:

| Binder | Co-incubation Potency IC50 (nM) hPDGF-BB (NIH-3T3 proliferation, DVD-Ig pre-incubated with excess hVEGF165) [1] | Potency IC50 (nM) cynoPDGF-BB (NIH-3T3 proliferation) [2] | Potency IC50 (nM) mPDGF-BB (NIH-3T3 proliferation) [3] | Potency IC50 (nM) ratPDGF-BB (NIH-3T3 proliferation) (recombinant rat PDGF-BB) |
| --- | --- | --- | --- | --- |
| 4G8.3-SL-9E8.4 (g) anti-VEGF-A/anti-PDGF-BB DVD-Ig (PR-1572105) (bispecific antibody, human IgG1, kappa, L234A L235A) heavy: EVQLVQSGSELKKPGASVKVSCKASGYTFTNYGMYWVRQAPGQGLEWMGWINTETGKPTYADDFKGRFVFSLDTSVSTAYLQISSLKAEDTAVYYCARTNYYYRSYIFYFDYWGQGTMVTVSSASTKGPEVTLRESGPALVKPTQTLTLTCTFSGFSLSTYGMGVGWIRQPPGKALEWLANIWWDDDKYYNPSLKNRLTISKDTSKNQVVLTMTNMDPVDTATYYCARIESIGTTYSFDYWGQGTMVTVSSASTKGPSVFPLAPSSKSTSGGTAALGCLVKDYFPEPVTVSWNSGALTSGVHTFPAVLQSSGLYSLSSVVTVPSSSLGTQTYICNVNHKPSNTKVDKKVEPKSCDKTHTCPPCPAPEAAGGPSVFLFPPKPKDTLMISRTPEVTCVVVDVSHEDPEVKFNWYVDGVEVHNAKTKPREEQYNSTYRVVSVLTVLHQDWLNGKEYKCKVSNKALPAPIEKTISKAKGQPREPQVYTLPPSREEMTKNQVSLTCLVKGFYPSDIAVEWESNGQPENNYKTTPPVLDSDGSFFLYSKLTVDKSRWQQGNVFSCSVMHEALHNAYTQKSLSLSPGK light: DTVLTQSPATLSLSPGERATLSCRASESVSTHMHWYQQKPGQAPRLLIYGASNLESGVPARFSGSGSGTDFTLTISSLEPEDFAVYFCQQSWNDPFTFGQGTKLEIKRTVAAPSVFIFPPEFVLTQSPGTLSLSPGERATLSCERSSGDIGDSYVSWYQQKPGQAPRLVIYADDQRPSGIPDRFSGSGSGTDFTLTISRLEPEDFAVYYCQSYDINIDIVFGGGTKVEIKRTVAAPSVFIFPPSDEQLKSGTASVVCLLNNFYPREAKVQWKVDNALQSGNSQESVTEQDSKDSTYSLSSTLTLSKADYEKHKVYACEVTHQGLSSPVTKSFNRGEC | 0.047 nM | 0.142 nM | 0.096 nM | 1.3 nM |
| hVEGF 4G8.3-SL-hPDGF 9E8.4 [hu IgG1/k] mut(234, 235) H435A (PR-1569579) (bispecific antibody) heavy: EVQLVQSGSELKKPGASVKVSCKASGYTFTNYGMYWVRQAPGQGLEWMGWINTETGKPTYADDFKGRFVFSLDTSVSTAYLQISSLKAEDTAVYYCARTNYYYRSYIFYFDYWGQGTMVTVSSASTKGPEVTLRESGPALVKPTQTLTLTCTFSGFSLSTYGMGVGWIRQPPGKALEWLANIWWDDDKYYNPSLKNRLTISKDTSKNQVVLTMTNMDPVDTATYYCARIESIGTTYSFDYWGQGTMVTVSSASTKGPSVFPLAPSSKSTSGGTAALGCLVKDYFPEPVTVSWNSGALTSGVHTFPAVLQSSGLYSLSSVVTVPSSSLGTQTYICNVNHKPSNTKVDKKVEPKSCDKTHTCPPCPAPEAAGGPSVFLFPPKPKDTLMISRTPEVTCVVVDVSHEDPEVKFNWYVDGVEVHNAKTKPREEQYNSTYRVVSVLTVLHQDWLNGKEYKCKVSNKALPAPIEKTISKAKGQPREPQVYTLPPSREEMTKNQVSLTCLVKGFYPSDIAVEWESNGQPENNYKTTPPVLDSDGSFFLYSKLTVDKSRWQQGNVFSCSVMHEALHNAYTQKSLSLSPGK light: DTVLTQSPATLSLSPGERATLSCRASESVSTHMHWYQQKPGQAPRLLIYGASNLESGVPARFSGSGSGTDFTLTISSLEPEDFAVYFCQQSWNDPFTFGQGTKLEIKRTVAAPSVFIFPPEFVLTQSPGTLSLSPGERATLSCERSSGDIGDSYVSWYQQKPGQAPRLVIYADDQRPSGIPDRFSGSGSGTDFTLTISRLEPEDFAVYYCQSYDINIDIVFGGGTKVEIKGTVAAPSVFIFPPSDEQLKSGTASVVCLLNNFYPREAKVQWKVDNALQSGNSQESVTEQDSKDSTYSLSSTLTLSKADYEKHKVYACEVTHQGLSSPVTKSFNRGEC | 0.038 nM | 0.144 nM | 0.15 nM | 0.994 nM |
| 4G8.3-GS-9E8.4 (g) anti-VEGF-A/anti-PDGF-BB DVD-Ig (PR-1572102) (bispecific antibody, human IgG1, kappa, L234A L235A) heavy: EVQLVQSGSELKKPGASVKVSCKASGYTFTNYGMYWVRQAPGQGLEWMGWINTETGKPTYADDFKGRFVFSLDTSVSTAYLQISSLKAEDTAVYYCARTNYYYRSYIFYFDYWGQGTMVTVSSGGGGSGGGGSEVTLRESGPALVKPTQTLTLTCTFSGFSLSTYGMGVGWIRQPPGKALEWLANIWWDDDKYYNPSLKNRLTISKDTSKNQVVLTMTNMDPVDTATYYCARIESIGTTYSFDYWGQGTMVTVSSASTKGPSVFPLAPSSKSTSGGTAALGCLVKDYFPEPVTVSWNSGALTSGVHTFPAVLQSSGLYSLSSVVTVPSSSLGTQTYICNVNHKPSNTKVDKKVEPKSCDKTHTCPPCPAPEAAGGPSVFLFPPKPKDTLMISRTPEVTCVVVDVSHEDPEVKFNWYVDGVEVHNAKTKPREEQYNSTYRVVSVLTVLHQDWLNGKEYKCKVSNKALPAPIEKTISKAKGQPREPQVYTLPPSREEMTKNQVSLTCLVKGFYPSDIAVEWESNGQPENNYKTTPPVLDSDGSFFLYSKLTVDKSRWQQGNVFSCSVMHEALHNAYTQKSLSLSPGK light: DTVLTQSPATLSLSPGERATLSCRASESVSTHMHWYQQKPGQAPRLLIYGASNLESGVPARFSGSGSGTDFTLTISSLEPEDFAVYFCQQSWNDPFTFGQGTKLEIKRGGSGGGGSGEFVLTQSPGTLSLSPGERATLSCERSSGDIGDSYVSWYQQKPGQAPRLVIYADDQRPSGIPDRFSGSGSGTDFTLTISRLEPEDFAVYYCQSYDINIDIVFGGGTKVEIKRTVAAPSVFIFPPSDEQLKSGTASVVCLLNNFYPREAKVQWKVDNALQSGNSQESVTEQDSKDSTYSLSSTLTLSKADYEKHKVYACEVTHQGLSSPVTKSFNRGEC | 0.051 nM | 0.139 nM | 0.174 nM | 2.2 nM |
